Usually EC90 stands for the concentration at which the effect reaches the 90% level.

Read-outs that look alike come from different tables or passages of the source.

A short description of this test: Example 4: dose response of FKBP constructs 160-255, Ec50, Ec90 and fold change (raw and normalized to mCherry). The class given is cell-based. To be noted: for FC (fold change): fold change during initial analysis. How it is done: Additional experiments were performed for constructs FKBP-160-292.
[1] abbreviates: FKBP constructs 160-255, not normalized, read-out: EC90.
Setting [2] is: normalized to mCherry, read-out: EC90 (Norm).

B1: FKBP-214: FKBP13 DRD-AcGFP construct of Table 10 (protein)
chain: HCRIKSRKGDVLHAHYTGKLEDGTEFDSSLPRNQPFVFSLGTGGRIKGWDQGLLGMCEGEKRKLVIPSELGYGERGWPPKIPGGATLVFEVELLKIER
modifications: Description of sequence: Construct Name: FKBP-214; Mutation(s): Q72R Q84G A117W V85R DRD P43R M54A
With B1, the “FC (fold change)” value turned out to be 51.0. Besides, under setting [1], the EC90 worked out at 388 nM. The concentration for an effect of 90% (EC90) under setting [2] worked out at 390 nM.

B2: FKBP-217 (protein)
chain: HCPIKSRKGDVLHAHYTGKLYDGTEFDSSLPRNQPFVFSLGTGERIKGWDQGLLGMCEGEWRKLVIPSELGYGERGWPPKIPGGATLVFEVELLYIER
modifications: Description of sequence: Construct Name: FKBP-217; Mutation(s): Q72R Q84E A117W V85R DRD M54A E61Y K101W K135Y
With B2, the “FC (fold change)” value is 36.8. Besides, under setting [1], the 90% effect concentration (EC90) was determined as 16100 nM. In addition, under setting [2], the concentration for an effect of 90% (EC90) was 17500 nM.

B3: FKBP-218 (protein)
chain: HCPIKSRKGDVLHAHYTGKLGDGTEFDSSLPRNQPFVFSLGTGEVIKGWDQGLLGMCEGEGRKLVIPSELGYGERGWPPKIPGGATLVFEVELLEIER
modifications: Description of sequence: Construct Name: FKBP-218; Mutation(s): Q72R Q84E A117W DRD M54A E61G K101G K135E
On to B3, for which the “FC (fold change)” value is 4.46.

B4: FKBP-231 (protein)
chain: HCPIKSRKGDVLHMHYTGKLEDMTEFDSSLPRNQPFVFSLGTGERIKGWDQGLLGMCEGEKRKLVIPSELGYGERGWPPKIPGGATLVFEVELLKIER
modifications: Description of sequence: Construct Name: FKBP-231; Mutation(s): Q72R Q84E A117W V85R DRD G63M
Turning to B4, the “FC (fold change)” value turned out to be 39.9. In addition, the EC90 under setting [1] was found to be 396 nM. Under setting [2], the EC90 was determined as 399 nM.

B5: FKBP-226: FKBP13 DRD-AcGFP construct of Table 10 (protein)
chain: HCRIKSRKGDVLHAHYTGKLEDGTEFDSSLPRNQPFVFSLGTGERIKGWDQGLLGMCEGEKRKLVIPSELGYGERGWPPKIPGGATLVFEVELLKIER
modifications: Description of sequence: Construct Name: FKBP-226; Mutation(s): Q72R Q84E A117W V85R DRD P43R M54A
Regarding B5, the “FC (fold change)” value came to 31.5. For the same molecule, the 90% effect concentration (EC90) under setting [1] came out at 44.6 nM. The EC90 under setting [2] turned out to be 47 nM.

B6: FKBP-227 (protein)
chain: HCPIKSRKGDVLHMHYTGKLEDGTEFDSSLPRNQPFVFSLGTGEVIKGWDQGLLGMCEGEKRKLVIPSELGYGERGWPPKIPGGATLVFEVELLKIRR
modifications: Description of sequence: Construct Name: FKBP-227; Mutation(s): Q72R Q84E A117W DRD E137R
B6: the “FC (fold change)” value came to 29.0. For the same molecule, the EC90 under setting [1] amounted to 293 nM. Moreover, the 90% effect concentration (EC90) under setting [2] amounted to 278 nM.

B7: FKBP-224 (protein)
chain: HCRIKSRKGDVLHMHYTGKLEDGTEFDSSLPRNQPFVFSLGTGEVIKGWDQGLLGMCEGEKRKLVIPSELGYGERGWPPKIPGGATLVFEVELLKIER
modifications: Description of sequence: Construct Name: FKBP-224; Mutation(s): Q72R Q84E A117W DRD P43R
On to B7, for which the “FC (fold change)” value was found to be 5.2. Also, under setting [1], the EC90 worked out at 78.6 nM. Besides, the 90% effect concentration (EC90) under setting [2] is 88.7 nM.

B8: FKBP-229: FKBP13 DRD-AcGFP construct of Table 10 (protein)
chain: HCPIKSRKGDVLHAHYTGKLEDGTEFDSSLPRNQPFVFSLGTGERIKGWDQGLLGMCEGEKRKLVIPSELGYGERGWPPKIPGGATLVFEVELLKIRR
modifications: Description of sequence: Construct Name: FKBP-229; Mutation(s): Q72R Q84E A117W V85R DRD E137R M54A
As to B8, the “FC (fold change)” value was 54.0. The 90% effect concentration (EC90) under setting [1] stood at 484 nM. The concentration for an effect of 90% (EC90) under setting [2] came out at 455 nM.

B9: FKBP-222 (protein)
chain: HCWIKSRKGDVLHMHYTGKLEDGREFDSSLPRNQPFVFSLGTGEVIKGWDQGLLGMCEGEKRKLVIPSELGYGERGWPPKIPGGATLVFEVELLKIER
modifications: Description of sequence: Construct Name: FKBP-222; Mutation(s): Q72R Q84E A117W DRD P4W T25R
With B9, the “FC (fold change)” value amounted to 40.6. Moreover, the concentration for an effect of 90% (EC90) under setting [1] was 612 nM. For the same molecule, the EC90 under setting [2] turned out to be 602 nM.

B10: FKBP-221 (protein)
chain: HCPIKSRKGDVLHAHYTGKLEDGGEFDSSLPRNQPFVFSLGTGERIKGWDQGLLGMCEGEKRKLVIPSELGYGERGWPPKIPGGATLVFEVELLKIER
modifications: Description of sequence: Construct Name: FKBP-221; Mutation(s): Q72R Q84E A117W V85R DRD M54A T25G
In the case of B10, the “FC (fold change)” value is 41.8. For the same molecule, the EC90 under setting [1] is 495 nM. The EC90 under setting [2] was found to be 567 nM.

B11: FKBP-225 (protein)
chain: HCRIKSRKGDVLHMHYTGKLEDGTEFDSSLPRNQPFVFSLGTGERIKGWDQGLLGMCEGEKRKLVIPSELGYGERGWPPKIPGGATLVFEVELLKIER
modifications: Description of sequence: Construct Name: FKBP-225; Mutation(s): Q72R Q84E A117W V85R DRD P43R
On to B11, for which the “FC (fold change)” value is on record as 20.6. Besides, under setting [1], the EC90 was 25.4 nM. The EC90 under setting [2] came to 26 nM.

B12: FKBP-164 (protein)
chain: HCPIKSRKGDVLHAHYTGKLEDGTEFDSSLPRNQPFVFSLGTGERIKGWDQGLLGMCEGEKRKLVIPSELGYGERGWVPKIPGGATLVFEVELLKIER
modifications: Description of sequence: Construct Name: FKBP-164; Mutation(s): Q72R Q84E A117W DRD M54A P118V V85R
Consider B12, for which the “FC (fold change)” value stood at 42.7. For the same molecule, under setting [1], the concentration for an effect of 90% (EC90) worked out at 580 nM. Also, the concentration for an effect of 90% (EC90) under setting [2] was 621 nM.

B13: FKBP-163 (protein)
chain: HCPIKSRKGDVLHAHYTGKLEDGTEFDSSLPRNQPFVFSLGTGERIKGWDQGLLGVCEGEKRKLVIPSELGYGERGWPPKIPGGATLVFEVELLKIER
modifications: Description of sequence: Construct Name: FKBP-163; Mutation(s): Q72R Q84E A117W DRD M54A M96V V85R
B13: the “FC (fold change)” value is 29.4. Moreover, under setting [1], the EC90 turned out to be 756 nM. For the same molecule, the 90% effect concentration (EC90) under setting [2] was determined as 1010 nM.

B14: FKBP-232 (protein)
chain: HCPIKSRKGDVLHAHYTGKLEDMTEFDSSLPRNQPFVFSLGTGERIKGWDQGLLGMCEGEKRKLVIPSELGYGERGWPPKIPGGATLVFEVELLKIER
modifications: Description of sequence: Construct Name: FKBP-232; Mutation(s): Q72R Q84E A117W V85R DRD G63M M54A
For the molecule B14, the “FC (fold change)” value is 35.0. In addition, under setting [1], the concentration for an effect of 90% (EC90) amounted to 938 nM. Further, the 90% effect concentration (EC90) under setting [2] turned out to be 1090 nM.

B15: FKBP-219 (protein)
chain: HCPIKSRKGDVLHAHYTGKLGDGTEFDSSLPRNQPFVFSLGTGERIKGWDQGLLGMCEGEGRKLVIPSELGYGERGWPPKIPGGATLVFEVELLEIER
modifications: Description of sequence: Construct Name: FKBP-219; Mutation(s): Q72R Q84E A117W V85R DRD M54A E61G K101G K135E
As to B15, the “FC (fold change)” value came out at 5.4.

B16: FKBP-220: FKBP13 DRD-AcGFP construct of Table 10 (protein)
chain: HCPIKSRKGDVLHMHYTGKLEDGGEFDSSLPRNQPFVFSLGTGERIKGWDQGLLGMCEGEKRKLVIPSELGYGERGWPPKIPGGATLVFEVELLKIER
modifications: Description of sequence: Construct Name: FKBP-220; Mutation(s): Q72R Q84E A117W V85R DRD T25G
For the molecule B16, the “FC (fold change)” value worked out at 34.2. For the same molecule, under setting [1], the EC90 worked out at 156 nM. Besides, the EC90 under setting [2] worked out at 165 nM.

B17: FKBP-223: FKBP13 DRD-AcGFP construct of Table 10 (protein)
chain: HCWIKSRKGDVLHAHYTGKLEDGREFDSSLPRNQPFVFSLGTGERIKGWDQGLLGMCEGEKRKLVIPSELGYGERGWPPKIPGGATLVFEVELLKIER
modifications: Description of sequence: Construct Name: FKBP-223; Mutation(s): Q72R Q84E A117W V85R DRD M54A P4W T25R
In the case of B17, the “FC (fold change)” value worked out at 52.5. Further, the 90% effect concentration (EC90) under setting [1] is 674 nM. For the same molecule, under setting [2], the 90% effect concentration (EC90) was found to be 713 nM.

B18: FKBP-230: FKBP13 DRD-AcGFP construct of Table 10 (protein)
chain: HCPIKSRKGDVLHMHYTGKLEDMTEFDSSLPRNQPFVFSLGTGEVIKGWDQGLLGMCEGEKRKLVIPSELGYGERGWPPKIPGGATLVFEVELLKIER
modifications: Description of sequence: Construct Name: FKBP-230; Mutation(s): Q72R Q84E A117W DRD G63M
Regarding B18, the “FC (fold change)” value is on record as 49.0. Further, under setting [1], the EC90 was 997 nM. Further, the EC90 under setting [2] was determined as 890 nM.

B19: FKBP-216 (protein)
chain: HCPIKSRKGDVLHAHYTGKLYDGTEFDSSLPRNQPFVFSLGTGEVIKGWDQGLLGMCEGEWRKLVIPSELGYGERGWPPKIPGGATLVFEVELLYIER
modifications: Description of sequence: Construct Name: FKBP-216; Mutation(s): Q72R Q84E A117W DRD M54A E61Y K101W K135Y
Turning to B19, the “FC (fold change)” value was 27.6. Under setting [1], the concentration for an effect of 90% (EC90) was 14100 nM. The EC90 under setting [2] was 14500 nM.
